First the molecules themselves.
B1: CPEB3 Ribozyme (parent)
chain: GGGGGCCACAGCAGAAGCGUUCACGUCGCGGCCCCUGUCAGAUUCUGGUGAAUCUGCGAAUUCUGCUGU

In the data set the parent is B1. Put plainly: self-cleavage, relative activity (ratio to wild type); higher = more cleavage; co-transcriptional.
For C24A C45G, the self-cleavage amounted to 0.677.
With C24A C45A, the self-cleavage came to 0.712.
To C24A C45U belongs 0.751; to A23U U26A, 0.914.
With A23U U26C, the self-cleavage was 1.04.
As to A23U U26G, the self-cleavage was determined as 0.92.
To C24A C27A belongs 0.16; to C24A C27G, 0.105; to A23G G41C, 0.581.
To A23G G41U belongs 0.798; to A23G G41A, 0.676; to C24A G56C, 0.31.
To C24A G56U belongs 0.576; to C24A G56A, 0.52; to C24G C39U, 0.217.
In the case of C24A U38G, the self-cleavage stood at 0.196.
To C24A U38A belongs 0.393; to C24A U38C, 0.517; to C24A C35G, 0.173.
On to C24A A51G, for which the self-cleavage turned out to be 0.754.
In the case of C24A A51C, the self-cleavage was found to be 0.68.
To A23G U64A belongs 0.753.
To C24A G31U belongs 0.257.
To C24A G31C belongs 0.132; to A23G C63A, 0.681.
As to A23G C63G, the self-cleavage was 0.521.
As for A23G C63U, the self-cleavage was found to be 0.95.
To A23U U43C belongs 0.931.
To A23U U43A belongs 0.954.
For the variant C24A G28C, the self-cleavage came out at 0.129.
With C24A G28U, the self-cleavage is 0.127.
Turning to C24A G28A, the self-cleavage came out at 0.187.
Take A23U U46A: the self-cleavage turned out to be 0.955.
To A23U U46C belongs 0.964; to A23U U46G, 1.
On to A23U A59G, for which the self-cleavage turned out to be 0.972.
Regarding A23G G25A, the self-cleavage was 0.156.
To A23G G25U belongs 0.177; to C24A U44G, 0.615; to C24A U44C, 0.628.
To C24A U44A belongs 0.705; to A23U G28U, 0.148; to A23U G28C, 0.217.
To A23U C33A belongs 0.876; to A23U C33G, 0.773; to C24A G41U, 0.456.
Consider C24A G41A, for which the self-cleavage came to 0.391.
As for C24A G41C, the self-cleavage is 0.299.
To A23G U67A belongs 1.03; to A23G U67C, 0.925.
For the variant A23G U67G, the self-cleavage was found to be 0.992.
To A23U U61A belongs 0.918.
Consider A23U U61G, for which the self-cleavage stood at 0.881.
As to A23G G37A, the self-cleavage turned out to be 0.254.
To A23G G37U belongs 0.22.
On to A23G G37C, for which the self-cleavage was determined as 0.214.
To A23G C45G belongs 0.971.
To A23G C45U belongs 0.991; to C24A U36A, 0.173.
To C24A U36G belongs 0.205; to C24A G68U, 0.834; to C24A G68A, 0.87.
As to C24G A40C, the self-cleavage was determined as 0.198.
To C24G A40G belongs 0.363; to C24A U69A, 0.825.
Regarding C24A U69G, the self-cleavage came out at 0.866.
To A23G C27A belongs 0.303; to A23G C27U, 0.222; to A23U G30A, 0.96.
With A23U G30U, the self-cleavage worked out at 0.547.
A23U G30C: the self-cleavage worked out at 0.786.
Turning to C24G A42U, the self-cleavage stood at 0.418.
Consider C24G A42G, for which the self-cleavage came out at 0.404.
To A23U C29G belongs 0.569.
To A23U C29U belongs 0.437; to A23U C29A, 0.8; to C24A G25A, 0.13.
Regarding C24A G25U, the self-cleavage was determined as 0.17.
To C24A G25C belongs 0.122; to A23U C57U, 0.28.
To A23U C57A belongs 0.288; to C24G C66A, 0.24; to C24G C66G, 0.28.
To A23G C39A belongs 0.785.
With A23G C39G, the self-cleavage was found to be 0.888.
For C24G C35G, the self-cleavage amounted to 0.116.
To C24G C35U belongs 0.261; to A23U U64G, 0.917.
Regarding A23U U64A, the self-cleavage worked out at 0.943.
To C24A U61C belongs 0.374; to C24A C39U, 0.493.
Turning to C24A C39A, the self-cleavage worked out at 0.349.
To C24A C39G belongs 0.682; to A23U G68A, 0.989.
To A23U G68U belongs 1.03; to A23U G68C, 1.01; to C24G C29A, 0.184.
For the variant A23G G31C, the self-cleavage came out at 0.237.
To C24A G47A belongs 0.771; to A23G C66A, 0.597; to A23G C66U, 0.964.
For A23G C66G, the self-cleavage worked out at 0.594.
Take C24G C32G: the self-cleavage stood at 0.239.
To C24G C32U belongs 0.435; to A23G C29A, 0.401; to A23G C29G, 0.211.
To C24A U55G belongs 0.289; to C24A A60G, 0.35; to C24A A60C, 0.283.
Turning to C24A A60U, the self-cleavage is 0.252.
To A23U C34G belongs 0.819; to A23U C34A, 0.956.
To C24A C34A belongs 0.262; to C24A C34G, 0.227.
C24G C27A: the self-cleavage was determined as 0.201.
To C24G C27G belongs 0.192; to C24G C27U, 0.149.
To A23G G65U belongs 0.554.
Take A23G G65C: the self-cleavage was 0.537.
To A23G G65A belongs 0.752; to A23U U69A, 1.03; to A23U U69C, 1.07.
To A23G C54A belongs 0.712; to A23G C54G, 0.919.
To A23G C54U belongs 0.964; to C24A A42G, 0.53.
For the variant C24A G30U, the self-cleavage came to 0.159.
To C24A G30A belongs 0.217.
Take C24G A51G: the self-cleavage came out at 0.515.
Regarding C24G A51C, the self-cleavage came to 0.323.
To C24A G37A belongs 0.229.
On to C24A G37C, for which the self-cleavage is 0.264.
To C24G G25A belongs 0.22.
To C24G G25C belongs 0.152.
To A23U G48A belongs 0.984.
With A23U G48U, the self-cleavage stood at 1.01.
To C24A C66A belongs 0.397; to C24A C66U, 0.651; to C24A C66G, 0.493.
For A23G C32U, the self-cleavage came to 0.976.
As for A23G C32A, the self-cleavage was 0.436.
For the variant A23G U43G, the self-cleavage amounted to 0.721.
As for A23G U43C, the self-cleavage was 0.937.
To A23G U43A belongs 0.877; to A23G G28U, 0.137; to A23G C35A, 0.215.
Turning to A23G C35G, the self-cleavage is 0.336.
With C24A, the self-cleavage came out at 0.77.
To C24G belongs 0.499; to A23U G25U, 0.144; to A23U G25A, 0.214.
To A23U G25C belongs 0.185.
With A23U G65C, the self-cleavage was found to be 0.698.
To A23U G65A belongs 0.885.
To A23U G47A belongs 1.02; to A23U G47U, 0.983; to A23G U53C, 0.8.
With A23G U53A, the self-cleavage was 0.916.
To A23U U55C belongs 0.953; to A23U U44A, 0.963; to A23U U44C, 0.869.
Consider A23U U44G, for which the self-cleavage amounted to 0.882.
To A23G U55A belongs 0.879; to A23G U55C, 0.789; to A23G U55G, 0.752.
To A23U A51C belongs 0.995.
To A23U A51U belongs 0.995.
